Here are results for 2 molecules from article PMC5995911, “Gas41 links histone acetylation to H2A.Z deposition and maintenance of embryonic stem cell identity” (Cell Discovery, 2018).

In one assay the test system is J1 mESCs. The assay can be described thus: RA-induced differentiation, expression of Tip60/p400 and SRCAP complex genes (qRT-PCR, Western blot). In kind it is cell-based, mouse. The note with it: 1 μM RA, ES cell medium without LIF; vs day 0; technical duplicate. Here is the method:
mESCs were plated in 96-well ultra-low attachment round bottom plates (Corning) at 1000 cells/well in ES cell medium without LIF. Media was changed every other day before day 8 and daily thereafter. For RA treatment, mESCs seeded on gelatin-coated dishes were treated with 1 μM RA in ES cell medium without LIF. Undifferentiated mESCs cultured with LIF in gelatin-coated dishes, are considered as EB and RA day 0.
Total RNA extraction, reverse transcription and quantitative real-time PCR (qPCR) were performed as previously described. Gene expression values were calculated by normalization to Actb using the comparative CT method. Primers used in the study are listed in Supplementary Table S6.
Background: In qPCR the cycle at which signal appears reflects the starting amount.

In assay [1] the target is Gas41 YEATS domain (aa 15–159) S73A (human) (UniProt O95619). The assay can be described thus: ITC; GAS41 YEATS (15-159) WT or mutants titrated with H3(1-34)K27ac peptide; 15 °C; 20 mM Tris-HCl pH 7.5, 500 mM NaCl, 5% glycerol, 2 mM β-mercaptoethanol; One Set of Binding Sites model.
For assay [2], the target named is Gas41 YEATS domain (aa 15–159) Y74A (human) (UniProt O95619). The assay is described as above.
The target of assay [3] is Gas41 YEATS domain (aa 15–159) with E95 mutated (human) (UniProt O95619). The description is as above.
For assay [4], the target named is Gas41 YEATS mutants with residues H71, S73, Y74 and F96 replaced with alanine. The description is as above.

As for `CC1=C(/C=C/C(C)=C/C=C/C(C)=C/C(=O)O)C(C)(C)CCC1` [RA, retinoic acid], the “change in gene expression of Tip60/p400 and SRCAP complex components” value in the assay on J1 mESCs is “almost all the genes were downregulated”.
As to “H3 (1–34) K27ac peptide (from UniProt P68431 2-35)”, the fold reduction of binding against wild type in assay [1] was 14 fold; in assay [2] it was 69 fold; in assay [3], 7 fold; in assay [4], 94 fold.
